Experimental findings from publication PMC2195629 are described below.

In the test the target is Glycocalicin, the soluble extracellular portion of human GP Ibα (human) (UniProt P07359). Put plainly: cell adhesion assay.
Chain of UniProt P07359 (P07359 17-531): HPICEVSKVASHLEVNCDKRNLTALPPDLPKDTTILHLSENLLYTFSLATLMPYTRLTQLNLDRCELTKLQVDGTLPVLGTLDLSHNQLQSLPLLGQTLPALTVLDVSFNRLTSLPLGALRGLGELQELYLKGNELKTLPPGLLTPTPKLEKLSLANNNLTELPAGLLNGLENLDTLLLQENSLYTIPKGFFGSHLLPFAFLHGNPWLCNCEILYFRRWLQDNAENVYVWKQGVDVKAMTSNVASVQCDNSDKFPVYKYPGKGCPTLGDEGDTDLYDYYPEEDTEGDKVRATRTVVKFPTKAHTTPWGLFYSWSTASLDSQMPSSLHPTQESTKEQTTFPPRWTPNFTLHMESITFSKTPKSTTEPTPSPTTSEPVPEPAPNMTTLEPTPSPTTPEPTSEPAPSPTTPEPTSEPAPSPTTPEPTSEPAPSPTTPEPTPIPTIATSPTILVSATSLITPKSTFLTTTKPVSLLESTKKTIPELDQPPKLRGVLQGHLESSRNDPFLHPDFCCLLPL

In turn, “phosphatidylinositol glycan–linked form of P-selectin on CHO cells (CHO-P) (from UniProt P16109 42-830) (receptor)” displayed a fold adhesion over untransfected CHO cells of 5 fold.
